Results published in the DeepSol protein solubility set.

Test: soluble on expression in E. coli; label from the status in PepcDB or PDB records

| Sequence | soluble on expression in E. coli |
| --- | --- |
| MSNASSTSSGRSSRAEVLWADVLSHIPFVKRFTTPDSRKEQKVRILSKNEVDEEDGVQLEQLIQNQEVILCHSSSMNFHQQCRGSVVDFEYIEKKVKVTVSSESDFPIWEDTDIWMQALSTPTSSLYAIDANTSVNSELIEDESVVQEQKEQISERAPLRLSDDIEEFGDVLVDVIKKKTDTKNNVFTITLGLTGFARFHAEIQLSKESTYYLNFDDGYEDDLASLASEEDILSGYQTIQNVDELCDKIGELTVTDVCIKTWFDILHNYAYIRLIVTSAKRKLQHFKLLTGHHVIIQSATSDRDTVLAVVSRVMKDGIVLTLQGVKKQTKNFVFSKNELFTIQIDHNYEDRLQKLTGKEEEHENLRRELINSDSDIRLHRSWKSNGKQYATFTSKNDAFKKIPFNTKFLLGKCWEAEGVLEKKADFIFAIRVADKNFSTPSTMTFEIKFTRNLVRNSKDFELSKAFYYVDFDLAHFVESDHCYSLLNAKSVNGKPDETVVKSCPIDEDLVFSVFPFQCGRRAEERRRGYQESQREVQSSTKKPDVKVEKNVKLEAPEKQNKRKDTALNPKEKYCAQKLEKQLNDQTKTPKQKPKQETSAGIKRESTQRPCVIPRTFETSNSKDASNKVPLQSVSEPKILLQDTNSRCAQPRKAVSHEGLKSHQQENVLKHLDNKHKFLCFVNIAKRIENDNGNPLVELSIGFDENGGKVQQSPWPLGIRMLLTDGLEKTEVKIQGDVQDTNGETVTFMIQQQLSDLDFLNSYKPKKLLACFREHGHNLK | not soluble |
| MSLRIKDIARLANVSVGTVDRVLHGRSGVSEASRKRVEEILKQLDYQPNMYASALASNKKYTFACLLPKHLEGEYWTDVQKGIREAVTTYSDFNISANITHYDPYDYNSFVATSQAVIEEQPDGVMFAPTVPQYTKGFTDALNELGIPYIYIDSQIKDAPPLAFFGQNSHQSGYFAARMLMLLAVNDREIVIFRKIHEGVIGSNQQESREIGFRQYMQEHHPACNILELNLHADLNIEDSRMLDDFFREHPDVKHGITFNSKVYIIGEYLQQRRKSDFSLIGYDLLERNVTCLKEGTVSFLIAQQPELQGFNSIKTLCDHLIFRKEVACTNYMPIDLLTKENIDYYHSEGHHHHHH | soluble |
| MSGRHEACITPARRARQCLNRGNTMRHLPLFSLMLFPASVYAADSDGANLN | not soluble |
| MAHHHHHHMSVVRVSITHSSSGIRVPEKRYELSQTIASIKSNIFTHFATPPEQMQLQLIDDRGVKVESSMADDKQLGYYQCRDDFVIHVVDLRPTQQIANFEDVSQVQKYEITEEAYSKREDNARAFRQLMMARQREEAEKAGNPLPKELDADSYKETAEKIHVDDRCQCQPGDRLGTVRFVGRVASLKPGYWIGVEFDEPVGKGDGSVKGTRVFECQPKYGGFLRPDQVTVGDFPPEEF | not soluble |
| MGSDKIHHHHHHMDTVNYTHHLSTFVDVVRAGSFSAVARRQGMKPSSIARKIDMLEDYFGAALFVRSTRALMLTDVGEVLVARAEVILNELNAMRVEIKSIKDNLDGPLRISCLPTFGKLHILPWLPKLRENFPRMTVELDLTERIANPSIERLDAVLRIGPLNDSGLYAKTIGVQRWLVCASPAYVGRSGKPAGWSQLAGHAIVDKLHDPAGICWHGALDPQQYSAMSIGFRCNDFDGLRQAALGGLGLAYLPDWVALPDITAGRLVKLFDDSKRGDEPISLLRASSKPSARLQIFHDALLDHLRKFSETGYGVE | not soluble |
| MTERILEVNDLHVSFDITAGEVQAVRGVDFYLNKGETLAIVGESGSGKSVTTKAITKLFQGDTGRIKKGEILFLGEDLAKKPENELIKLRGKDISMIFQDPMTSLNPTMQIGKQVMEPLIKHKNYSKAQAKKRALEILNLVGLPNAEKRFKAYPHQFSGGQRQRIVIATALACEPKVLIADEPTTALDVTMQAQILDLMKELQQKIDTAIIFITHDLGVVANIADRVAVMYGGQMVETGDVNEIFYDPKHPYTWGLLSSMPDLSTTNDTPLLAIPGAPPDLLHPPKGDAFARRSQYALDIDFKVEPPWFKVSPTHFVKSWLLDARAPKVELPELVKQRMKPMPNNYEKPLKVERVSFNEK | not soluble |
| SHMQSRELKTVSADCKKEAIEKCAQWVVRDCRPFSAVSGSGFIDMIKFFIKVKAEYGEHVNVEELLPSPITLSRKVTSDAKEKKALIGREIKSAVEKDGASATIDLWTDNYIKRNFLGVTLHYHENNELRDLILGLKSLDFERSTAENIYKKLKAIFSQFNVEDLSSIKFVTDRGANVVKSLANNIRINCSSHLLSNVLENSFEETPELNMPILACKNIVKYFKKANLQHRLRSSLKSECPTRWNSTYTMLRSILDNWESVIQILSEAGETQRIVHINKSIIQTMVNILDGFERIFKELQTCSSPSLCFVVPSILKVKEICSPDVGDVADIAKLKVNIIKNVRIIWEENLSIWHYTAFFFYPPALHMQQEKVAQIKEFCLSKMEDLELINRMSSFNELSATQLNQSDSNSHNSIDLTSHSKDISTTSFFFPQLTQNNSREPPVCPSDEFEFYRKEIVILSEDFKVMEWWNLNSKKYPKLSKLALSLLSIPASSAASERTFSLAGNIITEKRNRIGQQTVDSLLFLNSFYKNFCK | soluble |
| MSQSNHPGGKDAGSIPRVLISADRSSSGKTTISMGLMAALVSRGYKVQPFKVALDYIDPSYHTEITGRFCRNLDGYLMDEHGILDVYTHACETGGGADIAIIEGVRGLFEGFESLSDVGSTAQIAKILKCPVVFVINARSITRSAAALIGGYKNFDPDVEIAGVILNNIGGRRHAQKAKEAIEHYTGVPVLGIIPRDPSMQISMRHLGLMPALEGRRRFGDGGFENRLHGIEEIINKGIDVDRFLGIAESAKPLTALENSIFSPAVNENSQKPKIGVALDEAFNFYYRDNIDLLEIAGAEIVYFSPVNDPGLPEVDGLYIGGGYPELFAAELEANETMRKSIKEASAAGMPIYAECGGLMYLTEKISTGVPGKGTYHDASMPESTYSMVGALPGHTIMGQTRVVSYNIGTLARDCPIGKKGNSFKGHEFHHSEILEIPDDAEFAIALTRGTGIRGDRDGLIVNNTIGSYAHLHGVAYRELAGSLVEAARKFRDSRVSSLEHHHHHH | soluble |
| MAAVPELLEQQEEDRSKLRSVSVDLNVDPSLQIDIPDALSERDKVKFTVHTKTTLSTFQSPEFSVTRQHEDFVWLHDTLTETTDYAGLIIPPAPTKPDFDGPREKMQKLGEGEGSMTKEEFAKMKQELEAEYLAVFKKTVSTHEVFLQRLSSHPVLSKDRNFHVFLEYDQDLSVRRKNTKEMFGGFFKSVVKSADEVLFSGVKEVDDFFEQEKNFLINYYNRIKDSCAKADKMTRSHKNVADDYIHTAACLHSLALEEPTVIKKYLLKVAELFEKLRKVEGRVSSDEDLKLTELLRYYMLNIEAAKDLLYRRTKALIDYENSNKALDKARLKSKDVKLAETHQQECCQKFEQLSESAKEELINFKRKRVAAFRKNLIEMSELEIKHARNNVSLLQSCIDLFKNN | soluble |
| MEVPENLKNPQNARREGSNMKCLADYSVEKEVGEGSFSTVYLARRKEPKNDENPEVALKICLKRLILKNKMVPYIHREKEALALISREENAHPGIVTLYATFQDSESLYFVLEYAKYGDLCTLMQKQPDSKFNVADSRYYAANLLSALEHIHKLGIIHRDVKADNLLVKSDGRIMLTDFGSSKFLSDYQKIQENPVEEEQPTGRRSSFVGTAFFVTPELLTGSEMSPSSDLWAFSVTLYLFLTGIYPFNDMSEYLVFRRIQDILYTFSEDFPDENAKNLIERLLVKEQKSRLTSQEIKEHKFFESIDFEHLEQLEPPRIY | not soluble |
| LKLKDRVKLFLTPQNALFEVLQKYSEDFLNGEEVVKDNFKIDTAAAMSFSAVFACNRVLSETLASCPIMLYEKDDKGNRRQVTDTAEYGVLHYAPNAEMTPVQFKEFGMTNINLGGNFIAQKVFNMHGELLELRPIAWDRVRIDIDKSTGRLLYYIDGKQEPKTRDEIFHIPGLTLDGYIGITPLSYAALTIDIGLSQDTFERNFYHNRASTSGIFQYPNELSDEAFQRLKKDIKKNYTGLSNAGVPMILEGGGQFKEITMKLTDAQFLESKRFRIEDVCRIFRVPLHLVQDLTRSTNNNIEHQSLEFIVYTMLPWFKKWEENLNLQLLSKESRRKNRYFEFNISGLLRGDIKSRYEAYAQGRQWGWLSVNDIRRLENMNPIDNGDRYLEPLNMSEAGKQEEQLKALREEIFNMINERK | soluble |
| SLAQLDKNDPARGVLAAIAANASKIAEYDPRVRADEYDSVHQMRVATRELRSHLQTFEGILGGEDYLNLEKELKVLANILGRARDAEVVEERLSNLINTEVGDSIEEETKKELLEDLGAEYRREHERVVRALDNDRYTDLLQALENLLVDPPLITEVEEPEATEAPESAETTESTDVSEATEEADAEAESVEEATEQEESADAPESADLDALDEEYSPGSQAPVEEPKEPKKVDAALVLLEHLDKAHVKLVKLEKKARSQWDDLSIPMLEREENFHNLRKAAKKLRYSAEAVGKATTVETKKLYKACSGLQSVLGDYQDAITSRNELLRRAQVARRQGRDTFAYGILYQHEQTLSREYLTGYSDAFKSVEKAYAKLAEDTAKRSKKNKRK | soluble |
| MAHHHHHHMNCSSTLACHAVVSAPSTASLITSCWTPQQHCYRQLMKSLRAAYFHDRSKLFWSRHRVLVEFYKYSEEANEEAVKQLVAIGLEVAAFIDHHMRTDVERIVKHNETMMALPVAQAKKFRSDYLLAEKQHDSWCKQKIKNIMKRRPPPPYPFF | not soluble |
| MAAAAAARKGGFWQRFAGKGVVQHCQSPTAPLPEACADMLWSNLGLLAAESIVPVLQNWARALKTDGLLFFTCFGRDTLAELKCRLKENGIESRSVMFPDMHDLGDMLAENGFYDPVTDTAKLVLDYKKAETFWADMDTLGIWRAMAWNDENAARSCVGTIFEREGGLGITLETVYGHAVKKLMLPQGENVVQFFPKRLEHHHHHH | soluble |
| MAHHHHHHMNSSTVSEDIALAGIKKEVLRSLPFWKSFVELREAYHRRPRVFSCDVSIKSRKACSHFVGFDVLWVQSEVVLVSWRRPSKRNRANDFPPEFVEVHLTFGSMHFVHQNVHLVGDHCSYSLQSVVLLQRPEQLQCVAGNMVHFAFLVYGMLHISQRDGFLTDPRAILPPPNSAVMLLGMGGNSMERGIRYILGEDAHIYIAEIEPAVVSTCRFAGLLKENANTHVCLDSAERTIQKCPEKCTFIFMDLFEPLSGNMVNTMPLIRQAFDILAPNGILLINEHSIPTVEHLLPLLHLFGDHNVQFVNVRGWNESIIAATKPGGNADGLGRKCSKRLATDVLNDFDHTFPGWMPDKNYILRSQILYAKPLTLKLRARQWTS | not soluble |
| MKIAIVTDSTAYLPERIKDHPNLFVIPIPVILDGKIYNEGIDIEADEYYALLNNSKEFPTTSQPALGEVLELYKSIAEQGYDTIISIHLSSGISGFVHTLHGLTDEIPGVALYPYDSKITSMPMGHMVEAALDLTEEKASLEEIFAKLDLIRDNTYAYLIVEDLNNLVRGGRLTNGAALIAGLLKIKPILTFEDGKIVLFEKIRSTKKAFARAEKIIGERNAGIEAPVKLYVIHANNRIVAEKEQAKLQKLYPNAEIEIGHFGPVIGTHLGEKAIGLAISAQ | not soluble |
| MIVVVNEQQVEVDEQTTIAALLDSLGFGDRGIAVALNFSVLPRSDWATKICELRKPVRLEVVTAVQGG | soluble |
| MRWEELSEQPCSLARVLAILGDRWTLLVLRDCFLGVRRFDDFERSLGVTRHVLADRLKRLVEAEILAKVPYQERPLREEYRLTEKGMELYPAILSLVNWGDRHLAGVEGPPLEHVHKHCGQHMHGVLVCSECGEPLHARDVTVREGLFWKGRLLRRG | not soluble |
| MSEFLNENPDILEENQLPTRKEDSTKDLLLGGFSNEATLERRSLLLKIDHSLKSQVLQDIEVLDKLLSIRIPPELTSDEDSLPAESEDESVAGGGKEEEEPDLIDAQEIYDLIAHISDPEHPLSLGQLSVVNLEDIDVHDSGNQNEMAEVVIKITPTITHCSLATLIGLGIRVRLERSLPPRFRITILLKKGTHDSENQVNKQLNDKERVAAACENEQLLGVVSKMLVTCK | soluble |
